Experimental findings from article PMC8156991, “The Profound Influence of Lipid Composition on the Catalysis of the Drug Target NADH Type II Oxidoreductase” (Membranes, 2021) are described below.

Substrate in the series: CC1=CC(=O)c2ccccc2C1=O
As to the kind of experiment: cells, lysate or membranes named. As to conditions: 33% PG + 67% PE vesicles with 1% menaquinone-7 embedded as shuttle, co-substrate NADH, 20 mM MOPS, 30 mM Na2SO4, pH 7.4, 25 °C, lipid-dependent. Type of series: biochemical, Caldalkalibacillus thermarum.

B1: CthNDH-2 (Caldalkalibacillus thermarum type II NADH:quinone oxidoreductase) (Caldalkalibacillus thermarum TA2.A1) (protein)
chain: MSKPSIVILGAGYGGIVAALGLQKRLNYNEADITLVNKNDYHYITTELHQPAAGTMHHDQARVGIKELIDEKKIKFVKDTVVAIDREQQKVTLQNGELHYDYLVVGLGSEPETFGIEGLREHAFSINSINSVRIIRQHIEYQFAKFAAEPERTDYLTIVVGGAGFTGIEFVGELADRMPELCAEYDVDPKLVRIINVEAAPTVLPGFDPALVNYAMDVLGGKGVEFKIGTPIKRCTPEGVVIEVDGEEEEIKAATVVWTGGVRGNSIVEKSGFETMRGRIKVDPYLRAPGHENIFIVGDCALIINEENNRPYPPTAQIAIQHGENVAANLAALIRGGSMTPFKPHIRGTVASLGRNDAIGIVGGRKVYGHAASWLKKLIDMRYLYLIGGLSLVLKKGRF
B1: the Km was 21.7 µM.
